Measured values: patent publication US20220119492A1 (MEDIKINE, published 2022)
Bridge positions count the residues as written; N and C are the ends. Ends that are not written are not given here.

T1: human IL-2Rβ (CD122 protein, Fc Tag) (27-239) (human, UniProt P14784 27-239)
T1 construct: range 27-239; Bought protein; also called hu-IL-2Rβ subunit; IL-2Rβ subunit; not shown: Fc tag of the bought protein
T1 sequence (looked up): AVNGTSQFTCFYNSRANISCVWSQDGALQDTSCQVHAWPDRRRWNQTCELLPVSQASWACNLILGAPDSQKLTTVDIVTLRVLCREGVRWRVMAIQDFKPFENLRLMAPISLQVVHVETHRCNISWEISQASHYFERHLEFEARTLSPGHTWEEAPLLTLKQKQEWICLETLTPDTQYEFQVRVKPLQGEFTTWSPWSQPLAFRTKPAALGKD


Molecular target: T1, human IL-2Rβ (CD122 protein, Fc Tag) …
Experiment: phage ELISA competition
Summary of the method: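 Values are IC50s derived from absorbance in a competitive binding ELISA, where a phage tracer competes with test ligands for human IL-2Rβ-Fc across a ligand dilution series. After 50 μL of phage tracer was added without washing for 45 min at 4° C, bound phage was detected with TMB for 1 to 15 min at 25° C. The reaction was then stopped and absorbance read at 450 nm.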

Binder | IC50 [µM]
WKPCWMARLGELCDIEDTKVNA [SEQ ID NO 2615] | < 100
WSPCWIATLGELCDLD [SEQ ID NO 2595] | < 100
GAGVLHRWPCWMAKLGDLCDLD [SEQ ID NO 2600] | < 100
WLPCWLAHLGDICDLQ [SEQ ID NO 2597] | < 100
WWPCSSAELGEICDFD [SEQ ID NO 2593] | < 100
WKPCWMAGLGELCELD [SEQ ID NO 2592] | < 100
WQPCWMAQLGELCDLE [SEQ ID NO 2586] | < 100
LHPCWMAQLGELCDLE [SEQ ID NO 2590] | < 100
WKPCWLAQLGDLCEME [SEQ ID NO 2587] | < 100
WNPCWIAQLGDLCDMV [SEQ ID NO 2596] | < 100
YRRERVEFPCWLAQLGELCDKE [SEQ ID NO 2608] | < 100
DTGRDGWKPCWMALLGELCELE (disulfide 10-19 (inferred)) [SEQ ID NO 2601] | < 100
YKPCWIAQLGELCELE [SEQ ID NO 2585] | < 100
ALVGGTFYPCYVAHLGELCDIE [SEQ ID NO 2606] | < 100
SLPCWMAQLGDLCELH (disulfide 4-13 (inferred)) [SEQ ID NO 2583] | < 100
VRAWYPCWIARLGELCDLEVD (disulfide 7-16 (inferred)) [SEQ ID NO 2580] | < 100
WDVHAIRNPCWLAKLGDLCDLD [SEQ ID NO 2599] | < 100
IDRADGWKPCWIAQVGELCVLE [SEQ ID NO 2607] | < 100
AVSHGNWLPCYIAQLGELCDLD [SEQ ID NO 2609] | < 100

Binder | IC50 [µM]
SNPCWMAQLWELCDLE [SEQ ID NO 2584] | < 100
WRVTASLQPCWMAQLGELCDLN [SEQ ID NO 2603] | < 100
SLPCWMAQLGELCDLV [SEQ ID NO 2591] | < 100
GQVVETSLPCWEAQLGELCVLD [SEQ ID NO 2604] | < 100
WYPCWIAQLGEVCDLEKQTGSV (disulfide 4-13 (inferred)) [SEQ ID NO 2611] | < 100
FKPCWIANLGELCDMDDERSSE [SEQ ID NO 2614] | < 100
YKPCQMAQLGELCDLDVDNKAE [SEQ ID NO 2613] | < 100
WYPCHMAKLRELCDLD [SEQ ID NO 2582] | < 100
WYPCWMAHLGDVCDLESFGQTE [SEQ ID NO 2612] | < 100
WFPCWMAQLGEVCDLD [SEQ ID NO 2581] | < 100
WLPCWMAKLGDLCELE [SEQ ID NO 2588] | < 100
EQGMLGYFPCWKALLGDVCDLD [SEQ ID NO 2602] | < 100
WLPCWMAQLGELCVME [SEQ ID NO 2589] | < 100
WLSPPSYLPCWMAQLGELCDLV [SEQ ID NO 2598] | < 100
IPKGESWFPCWMAAMGELCDLE [SEQ ID NO 2610] | < 100
TVGQFEWYPCSTAQLGELCDLD [SEQ ID NO 2605] | < 100
WQPCWRAKLGELCDLE (disulfide 4-13 (inferred)) [SEQ ID NO 2594] | < 100
SLPCWIARLGELCDLDGYDGEE [SEQ ID NO 2616] | < 100

Continued, values first:

IC50 [µM] | Binder
< 100 | RRSWYPCRIAQLGELCDLDPRV (disulfide 7-16 (inferred)) [SEQ ID NO 2640]
< 100 | YVPCYMARLGELCELEANRPGQ [SEQ ID NO 2625]
< 100 | FYPCWKARLGELCELEELRGYY [SEQ ID NO 2617]
< 100 | AYRIYPCWKAQLGELCDLDNAD [SEQ ID NO 2641]
< 100 | WKPCWRAQLGELCDLELGPSER [SEQ ID NO 2631]
< 100 | SKPCWMAQLGELCDLDVWNLQM [SEQ ID NO 2620]
< 100 | WFPCWMAQLGDLCELEPDSVPA [SEQ ID NO 2627]
< 100 | WKPCWIADLGELCDLAPAWHEY [SEQ ID NO 2618]
< 100 | WRRWYPCWMAQLGELCDLDQWT (disulfide 7-16 (inferred)) [SEQ ID NO 2639]
< 100 | YWPCSMASLGELCDLEWQGRLP [SEQ ID NO 2633]
< 100 | WKPCWMAALGELCDLERSVGKV [SEQ ID NO 2630]
< 100 | WYPCYMASLGELCDLQSSISPR [SEQ ID NO 2634]
< 100 | WYSCGKAQLGELCDLDVESQPG [SEQ ID NO 2624]
< 100 | QKGFLPCWRAQLGQLCDMESQY [SEQ ID NO 2637]
< 100 | QPAWLPCWLAQLGELCDLGTGA [SEQ ID NO 2643]
< 100 | FFPCWMGQLGDLCDLEVRSMQK [SEQ ID NO 2632]
< 100 | WKPCFIASLGELCDLDQGSVEV [SEQ ID NO 2629]
< 100 | GSGWQPCWMADLGELCDLDNEK [SEQ ID NO 2638]
< 100 | WTPCWIAHLGDLCDLEPQDDTD (disulfide 4-13 (inferred)) [SEQ ID NO 2628]
< 100 | SKPCWLAQLGDLCDFDWTAADH [SEQ ID NO 2626]
< 100 | WYPCWMAQLGELCDHEWPSYGA [SEQ ID NO 2635]
< 100 | WKPCWLAQLGELCDLERPSTTS [SEQ ID NO 2623]
< 100 | QRNSFPCWLAQLGDLCDLGDWA [SEQ ID NO 2642]
< 100 | GYPCWLAQLGDYCDLDAGAPSW [SEQ ID NO 2621]
< 100 | RLPCWRAQLGDLCELDWGLDMG [SEQ ID NO 2619]
< 100 | MGSWLPCWMAQLGDLCDVEGGM [SEQ ID NO 2636]
< 100 | SWPCWMAQLGDLCDLDGSAGAS [SEQ ID NO 2622]
